In test [1] the target is human CD16a (human FcγRIIIA), F isoform (human) (UniProt P08637). Kind of test: SPR. A general note: Surface plasmon resonance follows binding to a sensor surface in real time, without labels.
The target of test [2] is human CD64 (human FcγRI) (human) (UniProt P12314). Kind of test: SPR.
The target of test [3] is cynomolgus NKp46 (Gln17-Asn254) (cynomolgus) (UniProt Q95JB9). Kind of test: SPR. The following applies: bispecific antibody.
Test [4] deals with human CD32a (human FcγRIIA) (human) (UniProt P12318). Nature of the test: SPR.
Test [5] addresses cynomolgus CD32a (cynomolgus) (UniProt Q8SPW4). Kind of test: SPR.
Test [6] concerns the target cynomolgus FcRn (cynomolgus) (UniProt Q8SPV9). Kind of test: SPR.
Test [7] concerns the target cynomolgus CD64 (cynomolgus) (UniProt Q8SPW5). Nature of the test: SPR.
Test [8] concerns the target human CD32b (human FcγRIIB) (human) (UniProt P31994). Nature of the test: SPR.
Test [9] concerns the target human neonatal Fc receptor (human) (UniProt P55899). Nature of the test: SPR. The following applies: bispecific antibody.
Test [10] concerns the target human CD16a (human FcγRIIIA), V isoform (human) (UniProt P08637). Kind of test: SPR.
Test [11] deals with human CD16b (human FcγRIIIB) (human) (UniProt O75015). Nature of the test: SPR.
Test [12] deals with cynomolgus CD32b (cynomolgus) (UniProt Q8SPW3). Kind of test: SPR.
The target of test [13] is cynomolgus CD16 (cynomolgus) (UniProt Q8SPW2). Kind of test: SPR.
Another test deals with cynomolgus CD123. Kind of test: SPR. The following applies: bispecific antibody.
Test [14] concerns the target human NKp46 (Gln22-Asn255) (Homo sapiens) (UniProt O76036).
Target sequence in this assay (O76036 22-255): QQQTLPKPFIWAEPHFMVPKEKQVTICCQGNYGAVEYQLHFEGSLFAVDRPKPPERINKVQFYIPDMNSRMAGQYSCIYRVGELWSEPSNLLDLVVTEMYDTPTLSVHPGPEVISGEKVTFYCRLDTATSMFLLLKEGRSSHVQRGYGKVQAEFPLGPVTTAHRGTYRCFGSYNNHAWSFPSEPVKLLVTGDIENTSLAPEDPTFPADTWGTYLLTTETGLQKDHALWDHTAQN
For test [15] the target is unchanged. Nature of the test: SPR; Biacore T200, CM5 chip, 25 °C; CD123-NKCE (0.06 µg/ml) captured on anti-human Fc chip (human antibody capture kit); NKp46 or CD123 injected at 1.56 to 100 nM in HBS-EP+; 1:1 binding model with mass transport limitation; monovalent KD.
Test [16] concerns the target recombinant human CD123 (Homo sapiens) (UniProt P26951). The test is described as above.

The values that follow come from publication PMC10497414.

One may read the Kd as the free concentration of one partner at which half of the binding sites on the other are occupied at equilibrium, for simple one-to-one binding.

Like-named read-outs stand apart in the source and are kept apart here.

human CD16a (human FcγRIIIA), V isoform (human), sequence (P08637 17-208 F176V): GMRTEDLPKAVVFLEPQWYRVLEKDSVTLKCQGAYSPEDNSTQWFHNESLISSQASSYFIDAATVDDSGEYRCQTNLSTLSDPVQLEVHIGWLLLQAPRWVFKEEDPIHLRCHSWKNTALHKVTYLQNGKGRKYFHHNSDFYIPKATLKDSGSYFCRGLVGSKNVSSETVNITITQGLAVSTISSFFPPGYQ
human CD16b (human FcγRIIIB) (human), sequence (O75015 17-200): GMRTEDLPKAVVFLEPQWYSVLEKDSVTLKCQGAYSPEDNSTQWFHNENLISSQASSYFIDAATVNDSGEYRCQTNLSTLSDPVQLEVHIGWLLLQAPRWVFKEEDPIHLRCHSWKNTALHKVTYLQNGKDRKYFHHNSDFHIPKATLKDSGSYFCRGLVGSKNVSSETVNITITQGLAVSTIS
human CD32b (human FcγRIIB) (human), sequence (P31994 43-310): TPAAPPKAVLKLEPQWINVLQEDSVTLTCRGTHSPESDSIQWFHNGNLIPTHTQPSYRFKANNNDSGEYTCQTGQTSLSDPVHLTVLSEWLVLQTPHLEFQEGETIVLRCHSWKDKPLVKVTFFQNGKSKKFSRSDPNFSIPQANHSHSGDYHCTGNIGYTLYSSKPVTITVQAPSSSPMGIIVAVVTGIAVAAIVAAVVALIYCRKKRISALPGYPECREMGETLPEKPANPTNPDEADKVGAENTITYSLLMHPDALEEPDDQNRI
human CD64 (human FcγRI) (human), sequence (P12314 16-374): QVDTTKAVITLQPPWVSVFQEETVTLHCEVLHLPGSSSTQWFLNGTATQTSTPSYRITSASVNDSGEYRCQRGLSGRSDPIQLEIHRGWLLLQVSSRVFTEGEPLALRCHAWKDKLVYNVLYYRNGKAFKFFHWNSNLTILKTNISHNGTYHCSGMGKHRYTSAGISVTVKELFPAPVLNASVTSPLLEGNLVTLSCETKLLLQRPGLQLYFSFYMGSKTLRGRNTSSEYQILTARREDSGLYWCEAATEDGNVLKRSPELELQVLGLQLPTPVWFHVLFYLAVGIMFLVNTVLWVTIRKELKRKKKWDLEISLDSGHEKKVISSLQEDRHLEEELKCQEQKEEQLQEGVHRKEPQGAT
cynomolgus FcRn (cynomolgus), sequence (Q8SPV9 24-365): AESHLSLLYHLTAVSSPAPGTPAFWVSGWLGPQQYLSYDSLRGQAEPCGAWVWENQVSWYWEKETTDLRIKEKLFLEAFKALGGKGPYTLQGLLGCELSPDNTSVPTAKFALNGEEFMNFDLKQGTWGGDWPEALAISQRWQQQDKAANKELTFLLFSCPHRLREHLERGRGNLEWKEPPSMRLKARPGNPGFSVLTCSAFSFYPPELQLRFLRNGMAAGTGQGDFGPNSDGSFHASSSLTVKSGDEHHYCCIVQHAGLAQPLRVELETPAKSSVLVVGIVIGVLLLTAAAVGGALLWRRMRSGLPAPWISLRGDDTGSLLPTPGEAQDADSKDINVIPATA
human CD16a (human FcγRIIIA), F isoform (human), sequence (P08637 17-208): as the sequence (P08637 17-208 F176V) above, with V160F counted along it
human CD32a (human FcγRIIA) (human), sequence (P12318 34-317): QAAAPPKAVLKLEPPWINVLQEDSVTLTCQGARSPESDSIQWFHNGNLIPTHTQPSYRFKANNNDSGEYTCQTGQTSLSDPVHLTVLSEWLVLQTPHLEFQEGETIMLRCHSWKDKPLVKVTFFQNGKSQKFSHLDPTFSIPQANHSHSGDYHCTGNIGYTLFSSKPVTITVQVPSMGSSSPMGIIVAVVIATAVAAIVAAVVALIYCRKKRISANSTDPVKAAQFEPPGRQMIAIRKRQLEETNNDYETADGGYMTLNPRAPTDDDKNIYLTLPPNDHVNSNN
cynomolgus CD16 (cynomolgus), sequence (Q8SPW2 17-254): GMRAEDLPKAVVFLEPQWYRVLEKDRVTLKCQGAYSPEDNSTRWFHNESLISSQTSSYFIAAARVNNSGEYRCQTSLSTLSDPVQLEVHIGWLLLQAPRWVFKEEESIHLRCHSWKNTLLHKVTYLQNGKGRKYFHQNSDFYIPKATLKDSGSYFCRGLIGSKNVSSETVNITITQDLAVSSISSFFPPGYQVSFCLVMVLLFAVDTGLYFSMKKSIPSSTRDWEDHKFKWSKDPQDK
human neonatal Fc receptor (human), sequence (P55899 24-365): as the sequence (Q8SPV9 24-365) above, with D39N, Q44E, S99G, G189S, N190S, M217L, T269S, S319V, S332L, I335V counted along it
cynomolgus NKp46 (Gln17-Asn254) (cynomolgus), sequence (Q95JB9 17-254): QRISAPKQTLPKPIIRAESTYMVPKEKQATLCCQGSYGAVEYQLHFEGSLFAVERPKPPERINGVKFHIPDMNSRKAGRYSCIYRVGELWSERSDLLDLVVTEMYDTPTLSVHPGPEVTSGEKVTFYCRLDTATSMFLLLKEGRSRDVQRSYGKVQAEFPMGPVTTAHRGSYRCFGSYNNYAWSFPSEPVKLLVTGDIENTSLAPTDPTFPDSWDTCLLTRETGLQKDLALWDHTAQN

As to “CD123-NKCE (trifunctional NKp46-CD16a-NK cell engager targeting CD123)”, the Kd in [1] (bispecific antibody) was 2610 nM; in test [2] (bispecific antibody), 0.2 nM; in [3] it was 29 nM; in test [4] (bispecific antibody) it was 1220 nM; in test [5] (bispecific antibody) it was 5180 nM; in test [6] (bispecific antibody) it was 282 nM. The Kd amounted to 12 nM in test [7] (bispecific antibody); 3200 nM in test [8] (bispecific antibody); 109 nM in test [9]; 462 nM in test [10] (bispecific antibody); 6690 nM in test [11] (bispecific antibody); 1890 nM in test [12] (bispecific antibody). The Kd worked out at 466 nM in [13] (bispecific antibody) and 1.23 nM with cynomolgus CD123.
“CD123-NKCE (trifunctional NKp46-CD16a-NK cell engager targeting CD123) (bispecific antibody)”: the NK cell-mediated cytotoxicity (Cr-51 release) against MOLM-13 cells with NK cells from healthy donors, geometric mean EC50; NKp46 and CD16a coengaged in test [14] was determined as 0.0042 nM. This substance also gave an NK cell-mediated cytotoxicity (Cr-51 release) against MOLM-13 cells with NK cells from healthy donors, mean observed maximum specific lysis; NKp46 and CD16a coengaged in test [14] of 71%. The dissociation constant Kd in test [15] was 16.6 nM; in test [16], 0.4 nM.
On to Human IgG1 control, for which the dissociation constant (Kd) amounted to 2820 nM in test [1]; 0.2 nM in test [2]; 1570 nM in [4]; 6340 nM in test [5]; 237 nM in [6]; 18 nM in [7]. Further, the Kd amounted to 4230 nM in test [8]; 575 nM in test [10]; 7540 nM in [11]; 2320 nM in test [12]; 580 nM in test [13].
